Assay results from the supplement of paper PMC11780869.

System: Bacillus subtilis
Test: cleaved RNA product abundance (RNA/gDNA barcode ratio) relative to median wild-type variant (ratio to wild type); higher = more accumulation of the downstream cleavage product
Settings: cleavage site: cggR-gapA (positions -7 to +36 mutated)
How it was run: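 Reporter mRNAs based on truncated aprE or tetM carried barcoded, mutagenized RNase Y cleavage-site windows built from oligos with a 9% error rate and were integrated into the B. subtilis chromosome. Cultures grew in LB at 37°C from OD600 0.0003 to 0.3. Cleaved RNA was gel-selected, reverse transcribed and barcode-sequenced together with genomic DNA barcodes, and UMIs were collapsed. Cleaved product abundance is the per-construct ratio of RNA to gDNA barcodes, scaled to the median of constructs carrying the unmutated site.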

[1] = experiment (reporter, strain, medium): exp 2b: truncated aprE reporter, strain BJT200
[2] = experiment (reporter, strain, medium): exp 4a: truncated aprE reporter, strain BJT201 with 2% xylose (RNase J1 expressed)
[3] = experiment (reporter, strain, medium): exp 6: tetM reporter, strain 168

| Sequence | cleaved RNA product abundance [1] | cleaved RNA product abundance [2] | cleaved RNA product abundance [3] |
| --- | --- | --- | --- |
| ACAGACGAAGGAGCCGCAAAGAAGTTATTAAGAGATGAATAATCCCTAAATATAAATATCTCTCACTTATTTAAA | 0.141 | 0.158 | 0.179 |
| ACAGACGAAGGAGCCGCAAAGAAGTTATTAAGAGATGAATAATCCCTCAAAATAAATATCTCTCACTTATTTAAA | 0.101 | 0.106 | – |
| ACAGACGAAGGAGCCGCAAAGAAGTTATTAAGAGATGAATAATCCCTCAACATAAATATCTCTCACTTATTTAAA | 0.111 | 0.132 | – |
| ACAGACGAAGGAGCCGCAAAGAAGTTATTAAGAGATGAATAATCCCTCAAGATAAATATCTCTCACTTATTTAAA | – | 0.112 | – |
| ACAGACGAAGGAGCCGCAAAGAAGTTATTAAGAGATGAATAATCCCTCAATAAAAATATCTCTCACTTATTTAAA | – | 0.113 | – |
| ACAGACGAAGGAGCCGCAAAGAAGTTATTAAGAGATGAATAATCCCTCAATATAAAAATCTCTCACTTATTTAAA | 0.103 | 0.181 | – |
| ACAGACGAAGGAGCCGCAAAGAAGTTATTAAGAGATGAATAATCCCTCAATATAAAGATCTCTCACTTATTTAAA | – | 0.186 | – |
| ACAGACGAAGGAGCCGCAAAGAAGTTATTAAGAGATGAATAATCCCTCAATATAAATACCTCTCACTTATTTAAA | – | 0.126 | – |
| ACAGACGAAGGAGCCGCAAAGAAGTTATTAAGAGATGAATAATCCCTCAATATAAATAGCTCTCACTTATTTAAA | – | 0.106 | – |
| ACAGACGAAGGAGCCGCAAAGAAGTTATTAAGAGATGAATAATCCCTCAATATAAATATATCTCACTTATTTAAA | – | 0.193 | – |
| ACAGACGAAGGAGCCGCAAAGAAGTTATTAAGAGATGAATAATCCCTCAATATAAATATCTCTCACTATTTAAAG | – | 0.151 | – |
| ACAGACGAAGGAGCCGCAAAGAAGTTATTAAGAGATGAATAATCCCTCAATATAAATATCTCTCACTTATTTAAA | 0.111 | 0.147 | 0.135 |
| ACAGACGAAGGAGCCGCAAAGAAGTTATTAAGAGATGAATAATCCCTCAATATAAATGTCTCTCACTTATTTAAA | – | 0.0916 | – |
| ACAGACGAAGGAGCCGCAAAGAAGTTATTAAGAGATGAATAATCCCTCAATATAAATTTCTCTCACTTATTTAAA | – | 0.164 | – |
| ACAGACGAAGGAGCCGCAAAGAAGTTATTAAGAGATGAATAATCCCTCAATATAACTATCTCTCACTTATTTAAA | – | 0.0935 | – |
| ACAGACGAAGGAGCCGCAAAGAAGTTATTAAGAGATGAATAATCCCTCAATATAATTATCTCTCACTTATTTAAA | – | 0.118 | – |
| ACAGACGAAGGAGCCGCAAAGAAGTTATTAAGAGATGAATAATCCCTCAATATACATATCTCTCACTTATTTAAA | 0.102 | 0.136 | – |
| ACAGACGAAGGAGCCGCAAAGAAGTTATTAAGAGATGAATAATCCCTCAATATAGATATCTCTCACTTATTTAAA | – | 0.147 | – |
| ACAGACGAAGGAGCCGCAAAGAAGTTATTAAGAGATGAATAATCCCTCAATATATATATCTCTCACTTATTTAAA | 0.129 | 0.14 | – |
| ACAGACGAAGGAGCCGCAAAGAAGTTATTAAGAGATGAATAATCCCTCAATCTAAATATCTCTCACTTATTTAAA | – | 0.0377 | – |
| ACAGACGAAGGAGCCGCAAAGAAGTTATTAAGAGATGAATAATCCCTCAATGTAAATATCTCTCACTTATTTAAA | 0.0969 | 0.0609 | – |
| ACAGACGAAGGAGCCGCAAAGAAGTTATTAAGAGATGAATAATCCCTCAATTTAAATATCTCTCACTTATTTAAA | 0.0971 | 0.0573 | – |
